Results published in IntAct's records for PubMed 19013460.

B1: Thiamine metabolism regulatory protein THI3 (Saccharomyces cerevisiae), Q07471 (parent)
chain: MNSSYTQRYALPKCIAISDYLFHRLNQLNIHTIFGLSGEFSMPLLDKLYNIPNLRWAGNSNELNAAYAADGYSRLKGLGCLITTFGVGELSAINGVAGSYAEHVGILHIVGMPPTSAQTKQLLLHHTLGNGDFTVFHRIASDVACYTTLIIDSELCADEVDKCIKKAWIEQRPVYMGMPVNQVNLPIESARLNTPLDLQLHKNDPDVEKEVISRILSFIYKSQNPAIIVDACTSRQNLIEETKELCNRLKFPVFVTPMGKGTVNETDPQFGGVFTGSISAPEVREVVDFADFIIVIGCMLSEFSTSTFHFQYKTKNCALLYSTSVKLKNATYPDLSIKLLLQKILANLDESKLSYQPSEQPSMMVPRPYPAGNVLLRQEWVWNEISHWFQPGDIIITETGASAFGVNQTRFPVNTLGISQALWGSVGYTMGACLGAEFAVQEINKDKFPATKHRVILFMGDGAFQLTVQELSTIVKWGLTPYIFVMNNQGYSVDRFLHHRSDASYYDIQPWNYLGLLRVFGCTNYETKKIITVGEFRSMISDPNFATNDKIRMIEIMLPPRDVPQALLDRWVVEKEQSKQVQEENENSSAVNTPTPEFQPLLKKNQVGY
partner: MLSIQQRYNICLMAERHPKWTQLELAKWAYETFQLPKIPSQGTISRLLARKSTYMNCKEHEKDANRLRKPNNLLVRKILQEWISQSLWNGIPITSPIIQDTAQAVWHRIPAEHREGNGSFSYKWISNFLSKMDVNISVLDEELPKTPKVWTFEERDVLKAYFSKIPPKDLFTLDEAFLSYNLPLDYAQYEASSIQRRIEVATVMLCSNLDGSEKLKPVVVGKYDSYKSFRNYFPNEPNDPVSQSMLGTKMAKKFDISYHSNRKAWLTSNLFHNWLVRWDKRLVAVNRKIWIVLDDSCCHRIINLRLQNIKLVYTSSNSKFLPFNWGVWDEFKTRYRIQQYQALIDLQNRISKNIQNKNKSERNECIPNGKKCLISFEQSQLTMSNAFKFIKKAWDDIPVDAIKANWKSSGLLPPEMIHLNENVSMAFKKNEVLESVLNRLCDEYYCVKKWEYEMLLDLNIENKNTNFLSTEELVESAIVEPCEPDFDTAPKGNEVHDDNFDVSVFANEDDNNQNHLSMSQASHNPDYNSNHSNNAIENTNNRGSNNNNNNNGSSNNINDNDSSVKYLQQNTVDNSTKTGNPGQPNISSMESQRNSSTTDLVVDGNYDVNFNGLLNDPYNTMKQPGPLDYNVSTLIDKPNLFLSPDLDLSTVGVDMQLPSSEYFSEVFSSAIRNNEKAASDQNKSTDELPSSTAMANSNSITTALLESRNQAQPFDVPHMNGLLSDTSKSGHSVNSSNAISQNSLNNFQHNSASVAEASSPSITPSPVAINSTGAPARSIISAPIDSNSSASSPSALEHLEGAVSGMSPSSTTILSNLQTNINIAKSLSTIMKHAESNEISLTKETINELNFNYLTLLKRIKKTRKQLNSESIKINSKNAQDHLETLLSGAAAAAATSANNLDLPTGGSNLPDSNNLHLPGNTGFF

Variants of: B1
Settings: with pdc2_yeast PDC2, P32896

| Variant | effect of a mutation on the interaction |
| --- | --- |
| N488D | increasing interaction |
